The target of assay [1] is T1, wild-type human CCR7 (pcDNA3.1 Neo-hCCR7, 20100121357) (human, UniProt P32248 25-378).
T1 construct: Expressed on transfected 293T, CHO AM1/D or HEK293T cells; also called huCCR7; CCR7 receptor
T1 sequence: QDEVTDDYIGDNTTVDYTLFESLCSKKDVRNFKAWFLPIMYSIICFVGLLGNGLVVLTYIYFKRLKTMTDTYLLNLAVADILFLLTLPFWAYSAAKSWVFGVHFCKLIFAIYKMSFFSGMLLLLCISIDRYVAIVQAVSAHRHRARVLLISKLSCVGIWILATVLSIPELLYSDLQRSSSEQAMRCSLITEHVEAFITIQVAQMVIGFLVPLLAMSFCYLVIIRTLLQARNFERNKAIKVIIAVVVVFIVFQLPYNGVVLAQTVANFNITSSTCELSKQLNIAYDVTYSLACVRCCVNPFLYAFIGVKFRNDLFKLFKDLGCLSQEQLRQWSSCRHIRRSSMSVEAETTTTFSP
Kind of assay: hybridoma screening on cells expressing human CCR7.

Assay [2] concerns the target T2, wild-type murine CCR7 (pcDNA3.1 Neo-mouseCCR7, 20060298628) (mouse, UniProt P47774 25-378).
T2 construct: Full open reading frame as printed; Expressed on transfected 293T cells; also called mCCR7; wild-type murine CCR7 receptor
T2 sequence: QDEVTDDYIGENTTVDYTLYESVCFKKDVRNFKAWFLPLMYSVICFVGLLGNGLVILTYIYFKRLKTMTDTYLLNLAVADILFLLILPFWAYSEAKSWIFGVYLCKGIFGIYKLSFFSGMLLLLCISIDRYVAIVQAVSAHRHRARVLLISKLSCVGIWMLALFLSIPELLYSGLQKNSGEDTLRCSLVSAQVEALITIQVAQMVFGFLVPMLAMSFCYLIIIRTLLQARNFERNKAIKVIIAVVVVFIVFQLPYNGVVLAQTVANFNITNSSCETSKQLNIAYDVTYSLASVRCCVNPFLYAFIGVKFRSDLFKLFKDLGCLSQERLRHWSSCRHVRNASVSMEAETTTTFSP
The assay can be described thus: flow cytometry on transfected 293T cells. How it is done: 293T cells were transfected with each of the 22 constructs using Fugene HD Transfection Reagent (Cat #: 04709705001) (Roche Applied Sciences, Indianapolis, Ind.) according to manufacturer's protocol. DNA to Fugene HD ratio used was 1:3. […] After 48 hours, transfected cells were harvested and washed with PBS+5% FBS two times. Cells were counted using the Nexcelom Cell Counter (Nexcelom Bioscience, Lawrence, Mass.), and 250,000 cells per well were plated in a 96 well round bottom plate. Cells transfected with each construct were stained in duplicate as follows: unstained control, 6B4.1 primary Ab followed by Goat anti-human-PE secondary Ab, 6B5.1 primary Ab followed by Goat anti-human-PE secondary Ab, mAb197 primary Ab followed by Goat anti-mouse-PE secondary Ab, and the controls of secondary Ab Goat anti-mouse-PE only and Goat anti-human-PE only. The cells were visualized by flow cytometry and geo means were generated and analyzed.
For orientation: Flow cytometry measures light scatter and fluorescence of single cells or particles in a stream.

Assay [3] addresses T3, human CCR7 variant S49F (20100122627) (human, UniProt P32248 25-378).
T3 sequence: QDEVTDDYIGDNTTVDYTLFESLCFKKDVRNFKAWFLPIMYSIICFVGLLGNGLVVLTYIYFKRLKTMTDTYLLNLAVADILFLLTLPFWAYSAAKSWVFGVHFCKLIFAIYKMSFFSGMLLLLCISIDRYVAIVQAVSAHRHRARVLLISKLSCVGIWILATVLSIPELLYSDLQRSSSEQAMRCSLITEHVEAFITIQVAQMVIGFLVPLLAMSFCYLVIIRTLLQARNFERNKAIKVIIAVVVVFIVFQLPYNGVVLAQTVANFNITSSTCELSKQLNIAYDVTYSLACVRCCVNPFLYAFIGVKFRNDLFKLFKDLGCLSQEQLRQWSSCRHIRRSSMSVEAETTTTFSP
The assay can be described thus: flow cytometry on transfected 293T cells, PE secondary antibody, geo mean.

Assay [4] deals with T4, human CCR7 variant M208L (20100171271) (human, UniProt P32248 25-378).
T4 sequence: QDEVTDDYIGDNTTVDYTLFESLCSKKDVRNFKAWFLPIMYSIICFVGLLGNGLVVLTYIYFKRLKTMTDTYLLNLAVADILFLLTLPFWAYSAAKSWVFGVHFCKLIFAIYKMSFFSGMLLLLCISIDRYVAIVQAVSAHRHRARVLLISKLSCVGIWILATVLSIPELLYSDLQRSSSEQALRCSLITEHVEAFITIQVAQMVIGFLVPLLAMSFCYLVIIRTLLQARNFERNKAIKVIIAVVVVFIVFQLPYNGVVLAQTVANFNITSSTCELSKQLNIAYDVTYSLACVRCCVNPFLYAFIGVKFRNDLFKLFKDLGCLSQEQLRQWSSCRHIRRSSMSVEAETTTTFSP
Described as above.

Assay [5] has as its target T5, human CCR7 variant S204G (20100171269) (human, UniProt P32248 25-378).
T5 sequence: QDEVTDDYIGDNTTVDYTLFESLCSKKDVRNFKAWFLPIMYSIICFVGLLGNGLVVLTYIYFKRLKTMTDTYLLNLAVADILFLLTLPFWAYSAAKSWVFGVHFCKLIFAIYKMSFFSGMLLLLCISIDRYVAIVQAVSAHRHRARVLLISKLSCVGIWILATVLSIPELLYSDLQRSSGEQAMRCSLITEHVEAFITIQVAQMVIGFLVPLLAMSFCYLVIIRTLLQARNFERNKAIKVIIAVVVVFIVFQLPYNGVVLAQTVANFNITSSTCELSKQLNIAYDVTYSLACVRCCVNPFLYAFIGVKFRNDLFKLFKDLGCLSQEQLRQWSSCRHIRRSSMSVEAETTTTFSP
Described as above.

Assay [6] has as its target T6, human CCR7 variant A118E (20100130760) (human, UniProt P32248 25-378).
T6 sequence: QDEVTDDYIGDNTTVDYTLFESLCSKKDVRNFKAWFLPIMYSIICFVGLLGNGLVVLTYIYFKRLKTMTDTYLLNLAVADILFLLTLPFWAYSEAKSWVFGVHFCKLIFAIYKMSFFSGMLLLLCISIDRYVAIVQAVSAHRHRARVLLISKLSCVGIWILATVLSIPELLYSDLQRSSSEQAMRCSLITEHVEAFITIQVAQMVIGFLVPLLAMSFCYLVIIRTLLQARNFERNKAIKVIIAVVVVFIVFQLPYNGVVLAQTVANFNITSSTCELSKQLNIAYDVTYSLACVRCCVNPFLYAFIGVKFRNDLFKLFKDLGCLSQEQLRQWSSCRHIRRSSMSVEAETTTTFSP
The assay is described as above.

The record followed here is patent publication US20170342155A1 (Amgen, published 2017).

B1: antibody 6B4.1 (antibody, V domains shown)
VH: QVQLVESGGGVVQPGRSLRLSCAASGFTFSSYGMHWVRQAPGKGLEWVAVIWYDGSKKYYADSVKGRFTISRDNSKNTLYLQMNRLRAEDTAVYYCARDGGIAVFLQDNWFDPWGQGTLVTVSS
VL: SYELTQPPSVSVSPGQRARITCSGDKLGDKYASWYQQKPGQSPLLVIYQDSKRPSGIPERFSGSNSGNTATLTISGTQAMDEADYYCQAWGSSTVIFGGGTKLTVLG
notes: Human antibody from XenoMouse hybridoma; Light = 2 and heavy = 42 is inferred from the order of the listing (light chains first)
As to B1, the binding result is given as “binds” in assay [1]; “no binding” in assay [2]; “binds” in assay [3]; “binds” in assay [4]; “binds” in assay [5]; “binds” in assay [6].

B2: antibody 6B5.1 (antibody, human IgG2, lambda, V domains shown)
VH: QVQLVESGGGVVQPGRSLRLSCAASGFTFRSYGMHWVRQAPGKGLEWVAVIWYDGSKKYYADSVKGRFTISRDNSKNTLYLQMNRLRAEDTAVYYCARDGGIAVFLEDNWFDPWGQGTLVTVSS
VL: SYELTQPPSVSVSPGQRASITCSGDKLGDKYASWYQQKPGQSPLLVIYQDGKRPSGIPERFSGSNSGNTATLTISGTQAMDEADYYCQAWGSSTVIFGGGTKLTVLG
notes: Human antibody from XenoMouse hybridoma; Light = 18 and heavy = 50 is inferred from the order of the listing
For the molecule B2, the binding result in assay [2] is “no binding”; in assay [3], “binds”; in assay [4], “binds”; in assay [5], “binds”; in assay [6], “binds”.
